As a reminder, the stoichiometry N is the number of molecules, sites or subunits per partner or assembly. Broadly, the koff is the first-order rate constant of dissociation. A higher koff goes with fast dissociation. A word on the Kd: it is a measure of binding affinity in units of concentration. A lower Kd goes with tighter binding.

These results are taken from paper doi:10.1101/2024.03.27.586411 (2024).

Where “and” joins values, the source holds several entries; their conditions need not be identical. Equal entries are not always repeated.

Test [1] deals with PDCoV S_(SD2018) ectodomain trimer (Porcine deltacoronavirus (PDCoV), isolate SD2018/300). The test can be described thus: cryo-EM structure; 1.5 uM PDCoV S SD2018/300 with 4.5 uM PD41 Fab, 1 hour at 4 C; 3D classification into four classes, local refinement of the RBD:PD41 region.
Test [2] concerns the target human APN ectodomain, Fc fusion (human) (UniProt P15144). The test can be described thus: BLI; RBD to hAPN-Fc, series from 5 uM two-fold down to 39 nM; apparent KD; Octet Red, 30 C, 10 x Kinetics Buffer; 1:1 binding model; who was immobilised is not told for this series.
For test [3], the target named is T1, PDCoV_(IL121_2014) receptor-binding domain (Porcine deltacoronavirus (PDCoV), …).
T1 chain: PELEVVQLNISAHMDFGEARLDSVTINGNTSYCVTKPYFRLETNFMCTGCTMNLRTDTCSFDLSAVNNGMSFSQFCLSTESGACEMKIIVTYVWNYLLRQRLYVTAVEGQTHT
The test can be described thus: BLI. Background: Biolayer interferometry detects binding as a change in optical thickness at a sensor tip.

The target of test [4] is T1, PDCoV_(IL121_2014) receptor-binding …. The test can be described thus: BLI.

human APN ectodomain, Fc fusion (human), sequence (P15144 66-967): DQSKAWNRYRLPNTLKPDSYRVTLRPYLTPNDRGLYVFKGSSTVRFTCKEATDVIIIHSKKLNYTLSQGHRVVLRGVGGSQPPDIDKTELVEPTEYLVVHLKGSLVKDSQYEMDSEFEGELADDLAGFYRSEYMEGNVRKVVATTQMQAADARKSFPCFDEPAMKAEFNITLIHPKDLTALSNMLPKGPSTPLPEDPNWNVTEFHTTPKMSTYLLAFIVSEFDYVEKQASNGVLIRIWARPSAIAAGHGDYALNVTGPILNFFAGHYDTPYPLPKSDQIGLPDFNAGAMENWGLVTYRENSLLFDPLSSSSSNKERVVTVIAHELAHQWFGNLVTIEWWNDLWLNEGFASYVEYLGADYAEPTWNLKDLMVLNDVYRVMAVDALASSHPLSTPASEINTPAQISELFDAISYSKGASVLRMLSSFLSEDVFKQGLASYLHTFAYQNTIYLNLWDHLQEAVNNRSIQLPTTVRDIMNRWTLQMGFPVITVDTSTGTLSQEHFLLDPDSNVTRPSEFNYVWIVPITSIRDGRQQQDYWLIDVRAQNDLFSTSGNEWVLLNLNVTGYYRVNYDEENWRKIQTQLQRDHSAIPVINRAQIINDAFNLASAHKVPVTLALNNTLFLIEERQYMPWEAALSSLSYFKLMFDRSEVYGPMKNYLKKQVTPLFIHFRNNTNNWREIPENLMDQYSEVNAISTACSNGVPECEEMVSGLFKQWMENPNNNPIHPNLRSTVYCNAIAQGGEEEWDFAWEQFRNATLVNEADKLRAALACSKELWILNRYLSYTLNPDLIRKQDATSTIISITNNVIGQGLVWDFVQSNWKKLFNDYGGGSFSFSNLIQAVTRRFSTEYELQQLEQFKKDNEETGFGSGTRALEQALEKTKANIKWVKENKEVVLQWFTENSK

In turn, “PDCoV S_(SD2018) ectodomain trimer (natural protein)” showed a stoichiometry N in test [1] of 3. On to “PDCoV SD2018/300 receptor-binding domain (domain or fragment)”, for which the fold greater affinity than RBD (IL121 2014) in test [2] worked out at 5 fold.

B1: PD33 Fab fragment (Fab, V domains shown)
VH: EVQLVESGGGLVQPGGSLRLSCAASGFTFSHYTMNWVRQAPGRGLEWVSSITTSSNFIYYADSVKGRFTISRDNTKNSLYLQMNSLSAEDTAVYFCARGGWELSYFDFWGQGTLVTVSS
VL: DIVMTQSPLSLPVTLGQPASISCRSSQSLVYSDGNTFLNWFQQRPGQSPRRLIYKVSNRDSGVPDRFSGSGSGTDFTLRISRVEAEDVGFYYCMQGTHWPPTFGPGTKVEIK
For the molecule B1, the koff in test [3] is 0.000586 s⁻¹ and 0.000542 s⁻¹. In test [4], this molecule displayed a dissociation constant (Kd) of 4.36 nM.

B2: PD41 Fab fragment (Fab, V domains shown)
VH: HSQLQESGPGLVKPSQTLSLTCTVSGGSISSAGYYWNWIRQHPGKGLEWIGYIYYSGNTYYNPSLKSRVTISVDTSKSQFSLKLNSVTAADTAVYYCARKIVNWFDPWGQGTLVTVSS
VL: QSALTQPASVSGSPGQSITISCTGTSSDVGGYNYVSWYQQHPGKAPKLMIYDVSERPSGVSNRFSGSKSGNTASLTISGLQAEDEADYFCCSYAGYTTYVVFGGGTQLTVL
On to B2, for which the dissociation rate constant (koff) in test [3] was 0.00177 s⁻¹ and 0.002 s⁻¹. Further, the Kd in test [4] was 22.6 nM and 37.2 nM.
